Source: PMC12114895, “Lanthanides-Based Nanoparticles Conjugated with Rose Bengal for FRET-Mediated X-Ray-Induced PDT” (Pharmaceuticals, 2025)
Ends that are not written are not given here. RB = not defined here

What was measured:
[1] = Hydrodynamic size by TDA-ICP-MS; assay type: physicochemical; settings: Table 4, listed as AGuIX Ln@Mal-K(RB)DKPPR (Ln = Tb)
Method: TDA experiments were conducted using a TDA-ICP-MS hyphenation between a Sciex P/ACE MDQ instrument and a 7700 Agilent ICP-MS. Fused silica capillaries with an inner diameter of 75 µm and outer diameter of 375 µm, and a total length of 64 cm, were coated with hydroxypropylcellulose (HPC) using a solution of 0.05 g mL^−1 in water. Detection was carried out by ICP-MS at m/z = 158 and m/z = 159 for Gd and Tb detection, respectively. Samples were hydrodynamically injected (0.3psi for 3 s), then mobilized using Tris 10 mM and NaCl 125 mM at 0.7 psi. Between runs, the capillary was flushed at 5 psi for 5 min with the mobilization medium. All measurements were performed at least in duplicates.
The detected peak was fitted by a sum of Gaussian distributions using Origin 8.5 software, according to Equation (8).(8) St=∑i=12Ai/σi 2πexp−t−t0^2/2σi2 where t0 is the peak residence time, and […] are the area under the curve and the temporal variance associated with each species i, respectively.
Under these experimental conditions, the molecular diffusion coefficient D is given by(9) D=Rc2t0/24σ^2=2kBT/6πηDh where Rc is the capillary radius, kB is the Boltzmann constant, T is the temperature, η is the viscosity, and Dh is the hydrodynamic diameter of the solute.
Therefore, using Equation (9), the hydrodynamic diameters can be calculated from the temporal variances measured from the fitted Taylorgram.

U-251 MG cells = experiment: Anchorage-dependent clonogenic assay with X-ray irradiation; assay type: cell-based, human; settings: [RB] = 1 µM, 24 h, clones after 7 days
Zeta potential = assay type: physicochemical; settings: DLS, Zetasizer Nano-Z, He-Ne 633 nm; pH 7.2 mentioned; listed as AGuIX Ln@Mal-K(RB)DKPPR (Ln = Tb)
Method: The zeta potential (ξ) for each NPs was determined using Zetasizer Nano-Z (Malvern, UK) equipped with a He-Ne laser at 633 nm.

Ln luminescence lifetime = assay type: physicochemical; settings: D2O, λexc/λdetection = 351/545 nm
[2] = Singlet oxygen production quantum yield; assay type: physicochemical; settings: D2O, reference Eosin Y
RB fluorescence lifetime = assay type: physicochemical; settings: D2O, λexc = 470 nm; listed as AGuIX Ln@Mal-K(RB)DKPPR (Ln = Tb)
Method: The Ln luminescence lifetime is recorded after excitation at 545 nm for Tb and 313 nm for Gd. The fluorescence lifetime of RB is recorded after excitation at 470 nm ( τf470 ). ^1O2 emission spectra are obtained after excitation at 558 nm (maximum absorption wavelength of RB) but also after excitation at 351 nm for Tb and 273 nm for Gd.
(§1) Absorption spectra were recorded on a UV-3600 UV–visible double beam spectrophotometer (Shimadzu, Marne-La-Vallée, France). Fluorescence spectra were recorded on a Fluorolog FL3-222 spectrofluorimeter (Horiba Jobin Yvon, Palaiseau, France) equipped with a 450 W Xenon lamp and thermostated cell compartment (25 °C), a UV–visible photomultiplier R928 (Hamamatsu Photonics, Hamamatsu, Japan) and an InGaAs infrared detector (DSS-16A020L Electro-Optical System Inc, Phoenixville, PA, USA). The excitation beam was diffracted by a double ruled grating SPEX monochromator (1200 grooves/mm blazed at 330 nm). The emission beam was diffracted by a double ruled grating SPEX monochromator (1200 grooves/mm blazed at 500 nm). Singlet oxygen emission was detected through a double ruled grating SPEX monochromator (600 grooves/mm blazed at 1 µm) and a long-wave pass (780 nm). All spectra were measured in four-face quartz vials.

[3] = Fluorescence quantum yield; assay type: physicochemical; settings: D2O, λexc = 558 nm; reference tetraphenylporphyrin
Method: as §1
The fluorescence quantum yield (Φf) is calculated using Equation (6).(6) Φf=Φf0 . If/If0.OD0/OD. (n/n0)^2 where Φf and Φf0, If and If0, OD and OD0, n and n0 are the quantum yields, fluorescence intensities, optical densities, and refractive indices of the sample and reference, respectively.
Tetraphenylporphyrin (TPP) was chosen as the fluorescence reference standard (Φf0 = 0.11, toluene).

NRP-1 = NRP-1 (Homo sapiens, UniProt O14786); experiment: NRP-1 binding, competitive assay; settings: printed in the figure, read-out: IC50 ± SD (NRP-1, Figure 12)
Chain of NRP-1 (O14786 22-923): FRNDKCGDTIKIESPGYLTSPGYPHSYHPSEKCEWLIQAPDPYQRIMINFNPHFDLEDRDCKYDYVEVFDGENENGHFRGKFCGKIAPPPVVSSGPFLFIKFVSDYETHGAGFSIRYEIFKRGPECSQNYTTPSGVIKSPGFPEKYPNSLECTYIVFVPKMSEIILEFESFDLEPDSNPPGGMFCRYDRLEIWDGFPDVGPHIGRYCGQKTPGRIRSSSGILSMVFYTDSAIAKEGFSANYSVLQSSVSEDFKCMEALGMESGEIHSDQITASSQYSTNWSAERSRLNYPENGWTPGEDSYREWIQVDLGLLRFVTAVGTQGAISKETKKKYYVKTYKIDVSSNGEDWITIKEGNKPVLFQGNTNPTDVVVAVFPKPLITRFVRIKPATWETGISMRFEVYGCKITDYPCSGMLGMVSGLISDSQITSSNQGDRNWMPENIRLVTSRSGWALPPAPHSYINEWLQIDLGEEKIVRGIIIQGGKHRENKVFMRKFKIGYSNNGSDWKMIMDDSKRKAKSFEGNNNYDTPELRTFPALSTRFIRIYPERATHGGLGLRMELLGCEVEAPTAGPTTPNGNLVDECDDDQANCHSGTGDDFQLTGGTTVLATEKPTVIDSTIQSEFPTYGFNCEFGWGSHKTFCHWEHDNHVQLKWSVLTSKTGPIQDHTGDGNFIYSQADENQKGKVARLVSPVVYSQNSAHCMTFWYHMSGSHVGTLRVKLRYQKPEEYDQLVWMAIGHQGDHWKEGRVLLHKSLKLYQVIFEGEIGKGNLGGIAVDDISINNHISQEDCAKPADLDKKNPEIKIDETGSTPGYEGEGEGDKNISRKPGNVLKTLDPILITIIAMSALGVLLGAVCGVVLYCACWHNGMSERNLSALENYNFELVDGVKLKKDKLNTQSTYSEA
Method: The affinity of AGuIX Ln@Mal-K(RB) and AGuIX Ln@Mal-K(RB)DKPPR to NRP-1 was determined as previously described in terms of IC50 in another study.

Substance: Mal-K(RB)DKPPR [AGuIX Tb@Mal-K(RB)DKPPR, Mal-K(RB)DKPPR conjugated to thiolated AGuIX Tb NPs by thiol-maleimide click chemistry]
- percentage of population P1 [1]: 46%
- percentage of population P2 [1]: 54%
- Size, population P1 ([1]; Tris 10 mM and NaCl 125 mM): 5.4 nm
- Size, population P2 ([1]; Tris 10 mM and NaCl 125 mM): 32.0 nm
- Cell survival (clonogenic capability relative to control) (U-251 MG cells; X-ray 2 Gy (320 kV, 10 mA, 3 Gy/min), fraction of untreated non-irradiated cells, mean, triplicates from 3 experiments (n = 9)): 0.43
- decrease of cell growth (clones) (U-251 MG cells; X-ray 2 Gy, p = 0.02): 57%
- Zeta potential (ζ) (Zeta potential): −14 mV
- Ln luminescence lifetime τL (Tb) (Ln luminescence lifetime): 345 µs
- ^1O2 quantum yield ΦΔ351(Tb) ([2]; λexc = 351 nm): 0.36
- ^1O2 quantum yield ΦΔ558 ([2]; λexc = 558 nm, listed as AGuIX Ln@Mal-K(RB)DKPPR (Ln = Tb)): 0.68
- RB fluorescence lifetime τf470 (RB fluorescence lifetime): 2.8 ns
- Fluorescence quantum yield Φf558 [3]: 0.11

Substance: Mal-K(RB)DKPPR [AGuIX Tb@Mal-K(RB)DKPPR] (not fully specified (N-terminus); printed as AGuIX Tb@Mal-K(RB)DKPPR; reading uncertain) [Mal-K(RB)DKPPR conjugated to thiolated AGuIX Tb NPs by thiol-maleimide click chemistry]
- IC50 (NRP-1): 6 ± 1.3 nM
